Data: publication PMC6391532

Legend:
Assay in all cases: SEC
[1] = target: dengue virus 2 capsid protein (DENV2C), wild type (dengue virus 2)
[2] = target: DENV2C I88N (dengue virus 2)
[3] = target: DENV2C L54S (dengue virus 2)
[4] = target: DENV2C L50S (dengue virus 2)
[5] = target: DENV2C L81N (dengue virus 2)

“dengue virus 2 capsid protein (DENV2C), wild type (natural protein)” showed a stoichiometry N [1] of 2.
DENV2C I88N (natural protein) gave a stoichiometry N [2] of 2.
For DENV2C L54S (natural protein), the stoichiometry N [3] was 2.
Substance DENV2C L50S (natural protein) has a stoichiometry N [4] of 2.
For DENV2C L81N (natural protein), the stoichiometry N [5] was 2.
